This data set can be described thus: soluble on expression in E. coli; label from the status in PepcDB or PDB records.
For the sequence “MADKSSRSLILYGDGLARFVDPSNTNIHSLASVATCGFLSLPNAPPETENERIVREFSHLLDASEAYSIASGLKPKGNGNDISTLAERFMGLKAALVTDSSTLTSFGKLIGLDVLQLSEICQESDSFPSDATSSKLLKLLGFEGGKCLDVNLYDLVFVHFGVDEYNNGNNMGILDSLIGSIMGMAQPGSEILSRLHLSVVLSYGSVTDKDVSVFPIKTPQEDINPAFIGLVPRQSYTMRGEKTRDDVRHYCPMLVAQWQHGVTRKDLVDTLSFEALKKLCGNLVIPADRFIHEVAFKLWKAPKYGA”, the “soluble on expression in E. coli” value is given as “soluble”.
Regarding “MADNINESEIIERLNSAPSVRGFFIATVDVFNESIDGLIQRIFRKDNFAVQSVVGPLLQDSGPLGDLSVRLKLLFGLGVLPDDIYHDIEDIIKLKNHLNSDASDYEFTDPNILEPIKKLHLVKKMGMVQLEVNEPDDDIDLEFYQLQLQRQQQIIKSGLSLAIVEICNELGKDSPF”, the “soluble on expression in E. coli” value is “not soluble”.
Regarding “MADPQGFIKYSRREPAHRPVPLRLMDHSEVYEKAPAGQIEEQAARCMDCGVPFCHEGCPLGNIIPEWNDLVRQGRWKEAYDRLHATNNFPEFTGRLCPAPCEGACVLGINDDSVTIKNVELEIVEKAFREGWVQPVIPSMSTGLSVAVVGSGPAGLAAAQQLTRAGHSVTVFERDDRLGGLMRYGVPEYKMENRWIDRRIEQMEAEGTTFQVGTSPRAAELALFDAILLATGTPVARELSVPGHDLNGIHAAMDYLTAQNRINEGDGEVSPINAKGKKVVIIGGGDTGTDCFGTALRQGAESVTQFDIRPRAPFQRADSTPWPMYPNLFRTATAHEEGEYIITGDESADEIAALGLAERAAGSTLGERKFAVNTVEFHGNNGHVTGLTGNQIRVVNGKREPIEGTEFPFEADLVLVALGFTGAEQGGLAHELGVGFDDRGRILRDSEYRSPTNSRVYIAGDNGRGQSLIVWAIAEGRACAAAIDADLMGETALPVAVAPQDVPLAVLEHHHHHH”, the “soluble on expression in E. coli” value is recorded as “not soluble”.
As for “MADPTFAEHVATTNSRLASLRANLIDVSTFPEACSELTKWCQDQRAFTAHFEDNLMMALEAAMDYGTRENYDYMLTHGLVGACFTHRKHLSKPAATRIGRWYEQMRRLKKNGGKRKRAPPKPKDPALQASSQPTGTLPVLTSPSCPQNGQQLPTENNNFMFSPNSSDGLVLVIFSSSINFSLKIRVNAKKRKF”, the “soluble on expression in E. coli” value is on record as “not soluble”.
Take “MADPWQECMDYAVTLAGQAGEVVREALKNEMNIMVKSSPADLVTATDQKVEKMLITSIKEKYPSHSFIGEESVAAGEKSILTDNPTWIIDPIDGTTNFVHGFPFVAVSIGFVVNKKMEFGIVYSCLEDKMYTGRKGKGAFCNGQKLQVSHQEDITKSLLVTELGSSRTPETVRIILSNIERLLCLPIHGIRGVGTAALNMCLVAAGAADAYYEMGIHCWDVAGAGIIVTEAGGVLLDVTGGPFDLMSRRVIASSNKTLAERIAKEIQIIPLQRDDED”: the “soluble on expression in E. coli” value was “soluble”.
As to “MADQKEASEAAKNREIKISSSDDEIFLVPRNVIRLSNTLNTLLVDLGLDDDEGTNAEPIPVQNVTASILKKVINWCTKHQSDPIPTEDSEKKTDGSIQDWDKKFLDIDQGTLFELILAANYLDIKGLLDVACQSVANMIKGKSPDEIRRAFNIKDDFTAEEREQIRKENAWCDD”, the “soluble on expression in E. coli” value is recorded as “soluble”.
For “MADVALRITETVARLQKELKCGICCSTYKDPILSTCFHIFCRSCINACFERKRKVQCPICRSVLDKRSCRDTYQITMAVQNYLKLSEAFKKDIENMNTFKSLPPEKMFMESQMPLDITIIPENDGKRCAPDFAIPFLPVRRKRPSRPQPPSAFAEEPAEPVEPPEPATKQPVELQSRVFPLEKLKKDVETSTETYKISREELKNVDIEEYINTLRENSTEIDEIDALFQLMPTMRQFLRNNINQLMEKFHVAPPKKSEKPANRRVSFASSQDLENIKIMTASESLETPPEPIQKLAQKPEVFKSTQNLIDLNLNTAVKKPVVVASDDDEVVEDSEGELQIDEDDLANVTCATSVRNIGKSLCAEYIREGRSISQKSTAYLYAIARKCVIVGRQWLVDCITTGLLLSEADYTITSCSSTIPVKIPPSIGSEMGWLRSRNDEHGKLFAGRRFMILRKFTMNPYFDYKQLIELVQQCGGEILSCYENLSPEKLYIIFSKHSKAIEESKNIENLYKCDVVTMEWVLDSISEYLILPTQPYKAVDSIGCLQD” the value was “not soluble”; for “MADVLTELPGVGPSTADKLIEGGYLDFMKIATATIGELTDIEGISEKAAAKMIMAARDLCDLGFKSGVELLKQRQSVWRLSTGSTELDTVLAGGIESQSVTEFAGMFGSGKTQIMHQTCVNLQMREKIFADLEGVVEEELEAPKAVYIDTEGTFRPERVVQMAEGAGIDGQTVLDNTFVARAYNSDMQMLFAEKIEDLIKGGNNIKLVIIDSLTSTFRNEFTGRGKLAERQQKLGRHMATLNKLADLYNCIVLVTNQVAAKPDAYFGVAEQAIGGHVVGHAATFRFFLRKSKGDKRVAKLYDSPHLPDSEAVFRITEKGIQD”, “soluble”.
Regarding “MADVPDQVDINVNVVEKPTGAIMFGAGYSDREGIILNGSIAQNNILGTGNFLSLQVNTGSVNKVISASFNNPYYTINGVSLGLEAFKRDINTRSLSSVGMFNTDTTGANIRFGIPVAENDIVSLGLGYEHTKIDLRDDSPQRFKDFVDQFGKTSNNLPITLSWARDRRNSAIWTTSGMTQRLFGEFGLPFGDLNYYKVSYEQRWFFPVTKMFTLMLNGEVGVGDGYSDKPLPFFKNFFAGGFNSVRGYNINTLGPRDSDDRVLGGSKRIVGNIEVLFPVPFMKEDKSVRLSAFADGGTIVNSFSGLGFDDFRYSAGLAATWISPMGPLKFSVAQPLNNQSGDKLQRFQFQFGQTFLEHHHHHH”, the “soluble on expression in E. coli” value is given as “soluble”.
In the case of “MAEAGIAHTALPLEAIPEKSAGKGEGLTLIIYMLELALHAIPENLKKTVYSKVELMAPRSDGVLLFYGLCGNVLGKIEEDFRALDCRVSILKEENGEIVDDCIGAVLGGRGHYLEALKSCRGAGTFFLTPMWAVNWREMIRTAGLSRNPDDIEMSKFVFDYAGYKRVARVNTGLAYEKDFDARVKEFSTLFEFEVTDLEGTLQLVENCYAKTKASMLEACPHSQTLEHHHHHH”, the “soluble on expression in E. coli” value is “not soluble”.
In the case of “MAEGEDVGWWRSWLQQSYQAVKEKSSEALEFMKRDLTEFTQVVQHDTACTIAATASVVKEKLATEGSSGATEKMKKGLSDFLGVISDTFAPSPDKTIDCDVITLMGTPSGTAEPYDGTKARLYSLQSDPATYCNEPDGPPELFDAWLSQFCLEEKKGGISELLVGSPSIRALYTKMVPAAVSHSEFWHRYFYKVHQLEQEQARRDALKQRAEQSISEEPGWEEEEEELMGISPISPKEAKVPVAKISTFPEGEPGPQSPCEENLVTSVEPPAEVTPSESSESISLVTQIANPATAPEARVLPKDLSQKLLEASLEEQGLAVDVGETGPSPPIHSKPLTPAGHTGGPEPRPPARVETLREEAPTDLRVFELNSDSGKSTPSNNGKKGSSTDISEDWEKDFDLDMTEEEVQMALSKVDASGELEDVEWEDWE”, the “soluble on expression in E. coli” value was “soluble”.
For “MAEHDFETISSETLHTGAIFALRRDQVRMPGGGIVTREVVEHFGAVAIVAMDDNGNIPMVYQYRHTYGRRLWELPAGLLDVAGEPPHLTAARELREEVGLQASTWQVLVDLDTAPGFSDESVRVYLATGLREVGRPEAHHEEADMTMGWYPIAEAARRVLRGEIVNSIAIAGVLAVHAVTTGFAQPRPLDTEWIDRPTAFAARRAER” the value was “soluble”; for “MAEKKKDEKETKETENFILKLSAETVLFSNAKLGDEVTTTVLKMTNPTTDKCAFKVKCTSNDLFKIKTPVGYIKPDETIDIPLCHNPGKAIPENNKQYFAFYYIKTKEDGPARDAWKNHKPDGMKRIYISFKKGDEKGDEKKDEKKEEKKEEKKEEKKEDKKDDKKEAKKEEKKEEKKEEKKEEKKEEKKEEKKEEKNDENKEEKKEEKKDEKKEEKKVEEAKK”, “soluble”; for “MAELACFVSFSLTEDKVVWYPINKKAVQTMLCAKVEKDQRSNYYDTILYGVAPPPEFRNRFKTNERYGLDYESDQYTELVNLLADTLNMVSMPTEKFQFDIVKTVVQVRHLENLLCRIKDVNDILNANVKLRVKAVMIACNLVNETETTPLTESNDIVYQDSYFTITKLDYSNHKLLPLMADEYKITINTKTDIPDRNQTAFAAYIRYNFNKFAAISHGKRHWRLVLHSQLMSHAERLDRKIKSDKKHGRQFSYDDGDMAFVHPGWKTCIGQLCGGTTFEVAKTSLYSIKPSKTVRTATNKIESDLISMVGN”, “soluble”.
Consider “MAELRETLERLASFRPQNYYVSTLYLRLMPEDRQDNKYLRVYKDLVKKKEKDLENLNLDKEVLDSIRGDIKNIQDFLSDPKNLYNCRGIAIFSCSKLGLFEYVKLPYVYRNRLMFSPDPLVREIAAIDEEFGRVAVLLLDRKHIRYFLMDITGIEEKLDFLEPMTTRAHRFHSGGALLKGAEGTFQYRMPARGAAPNVVQHGMGEWRFHMRLREEWHRILKLASDALFEEWKRIHFDKLIIGGFIEEGLREIENFLHPYVKEKLVGYIEITPEEATPHQVWEKALDLLWQKDREQEKEIIKELEELKGWGLAVNGTSEVLEMLAIGNVRTLILPEDFEKPGYLCPQSHLAFLKPECPLPEEKPIPVSDVVDEALEEALDQRATIEVIIDKELQKKVDGLAAFLRFKL”, for which the “soluble on expression in E. coli” value is given as “not soluble”.
Consider “MAELVPFAVPIESDKTLLVWELSSGPTAEALHHSLFTAFSQFGLLYSVRVFPNAAVAHPGFYAVIKFYSARAAHRAQKACDRKQLFQKSPVKVRLGTRHKAVQHQALALNSSKCQELANYYFGFNGCSKRIIKLQELSDLEERENEDSMVPLPKQSLKFFCALEVVLPSCDCRSPGIGLVEEPMDKVEEGPLSFLMKRKTAQKLAIQKALSDAFQKLLIVVLESGKIAVEYRPSEDIVGVRCEEELHGLIQVPCSPWKQYGQEEEGYLSDFSLEEEEFRLPELD”, for which the “soluble on expression in E. coli” value was “soluble”.
With “MAENAAPGLISELKLAVPWGHIAAKAWGSLQGPPVLCLHGWLDNASSFDRLIPLLPQDFYYVAMDFGGHGLSSHYSPGVPYYLQTFVSEIRRVVAALKWNRFSILGHSFGGVVGGMFFCTFPEMVDKLILLDTPLFLLESDEMENLLTYKRRAIEHVLQVEASQEPSHVFSLKQLLQRQRTALTSSAGSCVRIPSGSCRPMSC”, the “soluble on expression in E. coli” value is listed as “soluble”.
For the sequence “MAENDGETIVPDEQCNLTASTPMKSSGLEQVESPKERKTSMVECDDEGNPSSGTPDESPKQLTPHSIPPRRRRSPRRPEVSASRLPLKVLNQIFQYLPLKDLRSAMLTCHSWNNALSMEDSDIWQYLLGKKLPEAAVSDPFLLAELGSAKKKLRAWYFAWNTSDISRNNYIRTNGFTVHRQPVAQSTDGVRGKRGISKGVHAFDITWDGPLGTVAVVGIATKHAALHCVGYVALLGSDDQSWGWNLVDNVLMHNGAQLGVYPKMNNPPKYEVGDKIRLIIDCDTHVAYFERNSEFLGIAFNHIPPLRLYPAVCAVYGNTEVTMVYVGSPQMG”, the “soluble on expression in E. coli” value is listed as “not soluble”.
Consider “MAENFQLPYLSLQNEKVDMVFDLFNKTIRNGEKVTFAFSGGKDSTTLAILFYEWLKIRHDIECTITLLHNDTSSEIDPMENWARNFMTSYKTEIEDITEGRVKINIDIRTPKVIDTFYWRMLIRGYPAPSFNFRWCVHLLKEKPANLDSIEETMFTGLREAESSERRILMRKKYGNSCSASPGGCMAYYYSTEGKGNKVAPMRDWTDGDVWSFLTLYRNTGGINISPIFMLYPNPKVRYGCWHCTLASVQWGLQSLGGGLEYFEAVRILYRKFSDLPYLRIKKNTGYSKLGPLNAAGRALMLKSIALAEDLSNVKLYGLDINLLEGKSIRDILFNLDPKEATALIKKYDPNIPRFRYIPIDKIRNIQKYKELALRALIDVKRNCANDKAYILLDTKLENPLITLLNRIEDLLS”, for which the “soluble on expression in E. coli” value is “not soluble”.

The values above are taken from the DeepSol protein solubility set.
